Measurements from paper PMC10589136, “Prenylation of dimeric cyclo-L-Trp-L-Trp by the promiscuous cyclo-L-Trp-L-Ala prenyltransferase EchPT1” (Applied Microbiology and Biotechnology, 2023).

Legend:
Assay in all cases: purified protein
purified protein [1] = substrate: CC(C)=CCOP(=O)(O)OP(=O)(O)O; conditions: 1 mM tetratryptomycin A (3) as prenyl acceptor, 5 mM CaCl2, Tris-HCl pH 7.5, 37 °C, 30 min, formation of 3a2
purified protein [2] = substrate: O=C1N[C@@H](Cc2c[nH]c3ccccc23)C(=O)N2C3Nc4ccccc4C3(C34C[C@H]5C(=O)N[C@@H](Cc6c[nH]c7ccccc67)C(=O)N5C3Nc3ccccc34)C[C@@H]12; conditions: 1 mM DMAPP, 5 mM CaCl2, Tris-HCl pH 7.5, 37 °C
purified protein [3] = substrate: O=C1N[C@@H](Cc2cn(C34C[C@H]5C(=O)N[C@@H](Cc6c[nH]c7ccccc67)C(=O)N5C3Nc3ccccc34)c3ccccc23)C(=O)N[C@H]1Cc1c[nH]c2ccccc12; conditions: 1 mM DMAPP, 5 mM CaCl2, Tris-HCl pH 7.5, 37 °C, 30 min, formation of monoprenylated 4a1
[4] = 20 min, formation of diprenylated 5a2
[5] = 30 min, formation of diprenylated 3a2

B1: EchPT1 (Aspergillus ruber) (protein)
chain: MPSEVLTSYYDYPTHDQEAWWRDTGPLFGRFLKGAGYDVHTQYQYLVFFIKNILPSLGPYPARWRSTITPTGLPIEYSLNFQLNSRPLLRIGFEPLSRFSGTPQDPYNKIAAADLLNQLSKLQLHEFDTQLFNHFTNEFELSKSESESLQKQGGINGKSTVRSQTAFGFDLKGGRVAVKGYAFAGLKNRATGTPVGQLISNSIRNLEPQMHCWDSFSILNSYMEESDGWNEYSFVSWDCVDIERSRLKLYGVHNAVTWDKVKEMWTLGGRIENNATIKTGLELLQHMWSLLQINEGDRDYKGGFAADNGGKTLPIIWNYELNKGSPHPAPKFYFPVHGENDLQVSKSISEFFTHLGWQDHARQYPHLLRQIYPNQNISQTERLQAWISFAYNERTGPYLSVYYYSAERPPWGSDQVK
- Km (purified protein [1]): 0.05 ± 0.007 mM
- kcat (purified protein [1]): 0.03 ± 0.002 s⁻¹
- kcat/Km (purified protein [1]): 600 M⁻¹ s⁻¹
- Km (purified protein [2]; [4]): 0.05 ± 0.005 mM
- kcat (purified protein [2]; [4]): 0.03 ± 0.001 s⁻¹
- kcat/Km (purified protein [2]; [4]): 600 M⁻¹ s⁻¹
- Km (purified protein [2]; [5]): 0.06 ± 0.007 mM
- kcat (purified protein [2]; [5]): 0.05 ± 0.0003 s⁻¹
- kcat/Km (purified protein [2]; [5]): 833 M⁻¹ s⁻¹
- Km (purified protein [3]): 0.25 ± 0.03 mM
- kcat (purified protein [3]): 0.14 ± 0.01 s⁻¹
- kcat/Km (purified protein [3]): 560 M⁻¹ s⁻¹
